Consider 1 molecule from patent US20130171170A1.

This assay has as its target human CD22-beta-ECD-His tagged soluble antigen (human) (UniProt P20273). Kind of assay: SPR (BIACORE 3000), antibody coupled to the chip, soluble CD22-beta-ECD-His injected, 25 C. For orientation: Surface plasmon resonance follows binding to a sensor surface in real time, without labels.

Chain of human CD22-beta-ECD-His tagged soluble antigen (human) (P20273 other isoform, or with tags, fused parts or gaps): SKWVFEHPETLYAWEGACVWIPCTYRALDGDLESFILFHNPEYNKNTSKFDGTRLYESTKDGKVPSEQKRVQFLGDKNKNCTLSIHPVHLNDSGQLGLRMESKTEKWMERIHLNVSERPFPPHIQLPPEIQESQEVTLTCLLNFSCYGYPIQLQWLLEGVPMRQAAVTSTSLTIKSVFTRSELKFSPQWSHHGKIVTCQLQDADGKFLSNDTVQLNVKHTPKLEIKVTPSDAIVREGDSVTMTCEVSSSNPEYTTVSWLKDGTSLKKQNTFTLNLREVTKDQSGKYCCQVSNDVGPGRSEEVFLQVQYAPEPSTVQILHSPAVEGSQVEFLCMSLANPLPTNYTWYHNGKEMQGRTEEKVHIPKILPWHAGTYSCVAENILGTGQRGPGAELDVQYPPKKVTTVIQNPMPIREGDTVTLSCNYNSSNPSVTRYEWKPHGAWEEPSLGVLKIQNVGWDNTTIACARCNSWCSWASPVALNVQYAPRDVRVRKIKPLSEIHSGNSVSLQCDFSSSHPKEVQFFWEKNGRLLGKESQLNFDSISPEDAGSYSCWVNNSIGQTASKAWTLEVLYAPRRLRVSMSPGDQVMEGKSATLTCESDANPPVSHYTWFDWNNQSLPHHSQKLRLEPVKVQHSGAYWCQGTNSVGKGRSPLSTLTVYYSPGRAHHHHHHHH

B1: anti-CD22 antibody RFB4 (antibody, from another filing, V domains shown)
VH: EVQLVESGGGLVKPGGSLKLSCAASGFAFSIYDMSWVRQTPEKRLEWVAYISSGGGTTYYPDTVKGRFTISRDNAKNTLYLQMSSLKSEDTAMYYCARHSGYGSSYGVLFAYWGQGTLVTVSA
VL: DIQMTQTTSSLSASLGDRVTISCRASQDISNYLNWYQQKPDGTVKLLIYYTSILHSGVPSRFSGSGSGTDYSLTISNLEQEDFATYFCQQGNTLPWTFGGGTKLEIK
By Kd is commonly meant the constant that tells how readily two partners part at equilibrium. For orientation: koff means the first-order rate constant of dissociation. The low end stands for slow dissociation, the high end for fast dissociation. What is called kon is the rate constant with which the complex forms. Low readings indicate slower complex formation, high ones faster complex formation. Molecule B1 came in with a Kd of 4.2 nM, a koff of 0.00014 s⁻¹ and a kon of 33000 M⁻¹ s⁻¹.
